Here are results for eleven molecules from patent US20210115124A1 (Genentech, published 2021).

Numbering of substitutions follows the chain as printed.

For orientation: Kd means the concentration at which binding is half-saturated. High values mean weaker binding, low ones tighter binding. By koff is commonly meant the first-order rate constant of dissociation. Usually kon stands for the rate constant with which the complex forms. Read a high kon as fast association.

T1: human VEGF (hVEGF) (human, UniProt P15692 181-395)
T1 construct: also called VEGF-A
T1 sequence: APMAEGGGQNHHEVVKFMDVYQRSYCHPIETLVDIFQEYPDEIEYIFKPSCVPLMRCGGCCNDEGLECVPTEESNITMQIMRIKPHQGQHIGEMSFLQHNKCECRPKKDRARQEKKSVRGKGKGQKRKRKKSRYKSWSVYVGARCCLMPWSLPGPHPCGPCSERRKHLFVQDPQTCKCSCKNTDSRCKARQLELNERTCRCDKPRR

B1: G6.31 HC-A60M (Fab, name in Kabat numbering, V domains shown)
VH: EVQLVESGGGLVQPGGSLRLSCAASGFTISDYWIHWVRQAPGKGLEWVAGITPAGGYTYYMDSVKGRFTISADTSKNTAYLQMNSLRAEDTAVYYCARFVFFLPYAMDYWGQGTLVTVSS
VL: DIQMTQSPSSLSASVGDRVTITCRASQDVSTAVAWYQQKPGKAPKLLIYSASFLYSGVPSRFSGSGSGTDFTLTISSLQPEDFATYYCQQGYGNPFTFGQGTKVEIK
notes: Fab
B2: G6.31 HC-Q81W (Fab, name in Kabat numbering, V domains shown)
VH: B1 VH with M61A, Q82W
VL: B1 VL
notes: Fab
B3: G6.31 HC-I51H (Fab, name in Kabat numbering, V domains shown)
VH: B1 VH with I51H, M61A
VL: B1 VL
notes: Fab
B4: G6.31 HC-S70H (Fab, name in Kabat numbering, V domains shown)
VH: B1 VH with M61A, S71H
VL: B1 VL
notes: Fab
B5: G6.31 HC-T73N (Fab, name in Kabat numbering, V domains shown)
VH: B1 VH with M61A, T74N
VL: B1 VL
notes: Fab
B6: G6.31 LC-T72R (Fab, V domains shown)
VH: B1 VH with M61A
VL: B1 VL with T72R
notes: Fab
B7: G6.31 LC-T31R (Fab, V domains shown)
VH: B1 VH with M61A
VL: B1 VL with T31R
notes: Fab
B8: G6.31 LC-Y55E (Fab, V domains shown)
VH: B1 VH with M61A
VL: B1 VL with Y55E
notes: Fab
B9: G6.31 LC-Y92E (Fab, V domains shown)
VH: B1 VH with M61A
VL: B1 VL with Y92E
notes: Fab
B10: G6.31 LC-S77E (Fab, V domains shown)
VH: B1 VH with M61A
VL: B1 VL with S77E
notes: Fab
B11: G6.31 LC-S50R (Fab, V domains shown)
VH: B1 VH with M61A
VL: B1 VL with S50R
notes: Fab
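Throughout, for Fold change (relative to G6.31): fab variants injected over hVEGF immobilized on a CM5 chip (Biacore T200), threefold dilution series from 0.02 to 50 nM, kinetics fitted with a 1:1 Langmuir model.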

The target in one test is T1, human VEGF (hVEGF). The test can be described thus: SPR single-cycle.
As to B1, the “Fold difference (relative to G6.31)” value was 0.8 fold, binding was put at a Kd of 1.89 nM, the koff turned out to be 0.000729 s⁻¹ and the kon amounted to 386000 M⁻¹ s⁻¹.
In the same order, the values of B2 are 3.4 fold, 0.45 nM, 0.000542 s⁻¹ and 1.2e+06 M⁻¹ s⁻¹.
In the same order, the values of B3 are 2.5 fold, 0.62 nM, 0.00152 s⁻¹ and 2.48e+06 M⁻¹ s⁻¹.
Consider B4, for which the “Fold difference (relative to G6.31)” value was 1.5 fold; the affinity, expressed as Kd, was 1 nM; the off-rate constant (koff) is 0.00066 s⁻¹; the kon is 658000 M⁻¹ s⁻¹.
With B5, the “Fold difference (relative to G6.31)” value was 1.8 fold, binding was characterised by a dissociation constant (Kd) of 0.85 nM, the koff turned out to be 0.000575 s⁻¹ and the association rate constant (kon) is 678000 M⁻¹ s⁻¹.

For a further test, the target named is T1, human VEGF (hVEGF). The test can be described thus: SPR single-cycle. The source holds these as a separate data set.
Source text: To determine the binding affinity of selected Fab variants, SPR measurement with a BIACORE® T200 instrument was used. Briefly, series S sensor chip CM5 was activated with 1-ethyl-3-(3-dimethylaminopropyl) carbodiimide (EDC) and N-hydroxysuccinimide (NHS) reagents according to the supplier's instructions, and human VEGF (hVEGF) was coupled to achieve 50-80 response units (RU), then following by blocking un-reacted groups with 1M ethanolamine.
Three-fold serial dilutions of Fab in HBS-P buffer (0.01 M HEPES pH 7.4, 0.15 M NaCl, 0.005% surfactant P20) from low (0.02 nM) to high (50 nM) were injected (flow rate: 30 μl/min). The binding responses on hVEGF were corrected by subtracting of RU from a blank flow cell. The sensorgram was recorded and subject to reference and buffer subtraction before evaluating by BIACORE® T200 Evaluation Software (version 2.0). Association rates (kₒₙ) and dissociation rates (koff) were calculated using a simple one-to-one Langmuir binding model. The equilibrium dissociation constant (Kd) was calculated as the ratio koff/kₒₙ.
For B6, the “Fold change (relative to G6.31)” value was found to be 1.1 fold, binding was put at a Kd of 1.53 nM, the koff is 0.000446 s⁻¹ and the kon came to 292000 M⁻¹ s⁻¹.
In the same order, the values of B7 are 0.9 fold, 1.8 nM, 0.000489 s⁻¹ and 271000 M⁻¹ s⁻¹.
Consider B8, for which the “Fold change (relative to G6.31)” value worked out at 0.1 fold, binding was characterised by a dissociation constant (Kd) of 11.7 nM, the koff was determined as 0.000531 s⁻¹ and the on-rate constant (kon) is 45300 M⁻¹ s⁻¹.
In the same order, the values of B9 are 0.8 fold, 2.07 nM, 0.00103 s⁻¹ and 497000 M⁻¹ s⁻¹.
In the same order, the values of B10 are 3 fold, 0.562 nM, 0.000399 s⁻¹ and 711000 M⁻¹ s⁻¹.
In the same order, the values of B11 are 0.9 fold, 1.89 nM, 0.000464 s⁻¹ and 245000 M⁻¹ s⁻¹.
